According to PMC5845931:

Experiments:
[1] = molecular target: PepTSt wild type, proton-dependent oligopeptide transporter from Streptococcus thermophilus (Streptococcus thermophilus) (UniProt Q5M4H8); test: MST; label-free (intrinsic tryptophan fluorescence of PepTSt); 125 nM PepTSt constant, peptide titrated up to the millimolar range; 22°C; pH 7.5, 100 mM Tris-HCl, 150 mM NaCl, 0.03% DDM
[2] = molecular target: PepTSt wild type, proton-dependent oligopeptide transporter from Streptococcus thermophilus (Streptococcus thermophilus) (UniProt Q5M4H8); test: MST; label-free (intrinsic tryptophan fluorescence of PepTSt); 125 nM PepTSt constant, peptide titrated up to the millimolar range; 22°C; pH 7.5, 100 mM HEPES, 150 mM NaCl, 0.03% DDM
[3] = molecular target: PepTSt wild type, proton-dependent oligopeptide transporter from Streptococcus thermophilus (Streptococcus thermophilus) (UniProt Q5M4H8); test: MST; label-free (intrinsic tryptophan fluorescence of PepTSt); 125 nM PepTSt constant, peptide titrated; 22°C; pH 4.5, 100 mM citrate, 150 mM NaCl, 0.03% DDM
[4] = molecular target: PepTSt wild type, proton-dependent oligopeptide transporter from Streptococcus thermophilus (Streptococcus thermophilus) (UniProt Q5M4H8); test: MST; label-free (intrinsic tryptophan fluorescence of PepTSt); 125 nM PepTSt constant, peptide titrated; 22°C; pH 5.0, 100 mM citrate, 150 mM NaCl, 0.03% DDM
[5] = molecular target: PepTSt wild type, proton-dependent oligopeptide transporter from Streptococcus thermophilus (Streptococcus thermophilus) (UniProt Q5M4H8); test: MST; label-free (intrinsic tryptophan fluorescence of PepTSt); 125 nM PepTSt constant, peptide titrated up to the millimolar range; 22°C; pH 7.5, 100 mM NaPi, 150 mM NaCl, 0.03% DDM
[6] = molecular target: PepTSt wild type, proton-dependent oligopeptide transporter from Streptococcus thermophilus (Streptococcus thermophilus) (UniProt Q5M4H8); test: MST; label-free (intrinsic tryptophan fluorescence of PepTSt); 125 nM PepTSt constant, peptide titrated; 22°C; pH 5.5, 100 mM citrate, 150 mM NaCl, 0.03% DDM

Substance	Kd [1] [mM]	other results
Ala-Ala (peptide)	8.59	
Ala-Leu (peptide)		Kd [2]: 0.56 mM; Kd [3]: > 50 mM
Leu-Ala (peptide)	13.8	Kd [4]: 47 mM; Kd [2]: 13.3 mM; Kd [5]: 9.56 mM; Kd [6]: 23 mM; Kd [3]: > 100 mM
Leu-Leu (peptide)	3.56	
Ala-Asp (peptide)	> 100	
Phe-Ala (peptide)	10.9	
Ala-Phe (peptide)	0.95	
Ala-Gln (peptide)	6.82	
Asp-Glu (peptide)	> 50	
